Experimental data as given in PMC4211667, “Cell Fate Regulation Governed by a Repurposed Bacterial Histidine Kinase” (PLoS Biology, 2014).

What was measured:
DivL(523–769) = target: T1, DivL(523–769) (Caulobacter vibrioides, UniProt Q9RQQ9); experiment: fluorescence titration of TNP-ATP with DivL; conditions: read-out: apparent binding constant
T1 construct: DHp-CA domains only (no PAS domains), residues 523-769, N-terminal His6, E. coli Rosetta (DE3) pLysS, homodimer in solution
T1 sequence (Q9RQQ9 523-769): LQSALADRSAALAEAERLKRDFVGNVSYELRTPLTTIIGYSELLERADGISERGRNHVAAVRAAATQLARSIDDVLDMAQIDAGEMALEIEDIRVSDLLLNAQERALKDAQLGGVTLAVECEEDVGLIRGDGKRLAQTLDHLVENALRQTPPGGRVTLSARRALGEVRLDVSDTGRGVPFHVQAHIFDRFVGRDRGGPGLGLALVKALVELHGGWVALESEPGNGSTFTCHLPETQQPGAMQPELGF

DivJ = target: T2, DivJ (Caulobacter vibrioides, UniProt Q03228); experiment: coupled-enzyme (PK/LDH, NADH) ATPase assay; assay type: biochemical; conditions: 1 mM ATP, 10 mM MgCl2, kinase buffer pH 8.0; with and without DivK activator
T2 construct: His-tagged, recombinant from E. coli

[1] = target: the molecule itself; experiment: SEC; 2 mg/ml His6-DivL(523–769) on Superdex 200 10/300 GL against Bio-rad standards
[2] = target: BODIPY-DivK (unphosphorylated DivK response regulator) (Caulobacter crescentus); experiment: fluorescence polarisation; 250 nM BODIPY-DivK or BODIPY-DivK∼P with varying kinase concentrations (DivL 0–120 µM), 45 min to equilibrium; DivK∼P made with 250 nM DivJ, 1 mM ATP, 5 mM MgCl2; unphosphorylated DivK with 1 mM AMP-PNP, 5 mM MgCl2; apparent Kd
[3] = target: BODIPY-DivK∼P (phosphorylated DivK response regulator) (Caulobacter crescentus); experiment: as above
BODIPY-DivK∼P (phosphorylated DivK response regulator) (Caulobacter crescentus), sequence (Q45976 entry or part of it): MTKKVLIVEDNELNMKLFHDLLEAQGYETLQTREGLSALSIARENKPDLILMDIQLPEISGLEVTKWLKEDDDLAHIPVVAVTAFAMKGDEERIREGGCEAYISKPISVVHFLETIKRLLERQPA

BODIPY-DivK (unphosphorylated DivK response regulator) (Caulobacter crescentus), sequence (Q45976 entry or part of it): as above
T2 sequence (Q03228 189-597): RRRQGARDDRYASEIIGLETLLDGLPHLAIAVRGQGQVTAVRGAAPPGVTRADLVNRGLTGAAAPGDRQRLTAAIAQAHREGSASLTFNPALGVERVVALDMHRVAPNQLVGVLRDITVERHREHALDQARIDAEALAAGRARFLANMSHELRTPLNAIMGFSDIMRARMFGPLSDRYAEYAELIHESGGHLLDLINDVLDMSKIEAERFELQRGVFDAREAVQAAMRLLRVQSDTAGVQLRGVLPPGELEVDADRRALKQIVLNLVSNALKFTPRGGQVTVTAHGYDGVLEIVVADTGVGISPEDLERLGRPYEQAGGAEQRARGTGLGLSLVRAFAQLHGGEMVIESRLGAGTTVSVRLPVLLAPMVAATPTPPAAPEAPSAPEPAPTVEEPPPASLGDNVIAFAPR

In the case of Nc1ncnc2c1ncn2[C@@H]1O[C@H](COP(=O)(O)OP(=O)(O)OP(=O)(O)O)[C@H]2OC3(O[C@H]21)C([N+](=O)[O-])=CC(=[N+]([O-])O)C=C3[N+](=O)[O-] (some centres unmarked) [TNP-ATP], the Kd (DivL(523–769)) is reported as 57 ± 8 µM.

For Nc1ncnc2c1ncn2[C@@H]1O[C@H](COP(=O)(O)OP(=O)(O)OP(=O)(O)O)[C@@H](O)[C@H]1O [ATP], the ATP consumption rate (DivJ) was “we observed stimulation of DivJ autokinase activity in the presence of DivK”.

B1: His6-DivL(523–769) (domain or fragment, Caulobacter crescentus, UniProt Q9RQQ9 523-769, looked up)
chain: LQSALADRSAALAEAERLKRDFVGNVSYELRTPLTTIIGYSELLERADGISERGRNHVAAVRAAATQLARSIDDVLDMAQIDAGEMALEIEDIRVSDLLLNAQERALKDAQLGGVTLAVECEEDVGLIRGDGKRLAQTLDHLVENALRQTPPGGRVTLSARRALGEVRLDVSDTGRGVPFHVQAHIFDRFVGRDRGGPGLGLALVKALVELHGGWVALESEPGNGSTFTCHLPETQQPGAMQPELGF
notes: DivL pseudo-histidine kinase, Caulobacter crescentus, residues 523-769 (DHp and CA domains with part of the N-terminal input helix); also called DivL DHp-CA construct; crystallization construct; source: E. coli Rosetta (DE3) pLysS (plasmid pWSC8), purified (Ni-NTA, gel filtration); not shown: His6, N-terminal, kept
With B1 the “stoichiometry N” value [1] was 2, the Kd [2] was 15 µM and the Kd [3] was 7 µM.
